Substitutions are numbered along the chain they refer to.
B1: BAK278D6 scFv (scFv, V domains shown)
VH: EVQLVQSGAEVKKPGASVKVSCKASGYTFRNYGLSWVRQAPGQGLEWMGWISANNGDTNYGQEFQGRITMTTETSTNTAHMELRSLRSDDTAVYYCVRDSSSNWARWFFDLWGKGTMVTVSS
VL: SYVLTQPPSVSVAPGQTARIPCGGNNIGSKLVHWYQQKPGQAPVLVVYDDGDRPSGIPERFSGSNSGNTATLTISRIDAGDEADYYCQVWDTGSDPVVFGGGTKLTVL
B2: BAK1187B4 scFv (scFv, part only; not given: Linker, part only)
scFv, part: QVQLVQSGAEVKKPGASVKVSCKASGYTFTNYGLSWVRQAPGQGLEWMGWIDDDSGTTIYGQEFQGRVTMTTDTSTSTAYMELRSLRSDDTAVYYCARDSSSSWARWFFDLWGRGTLVTVSSSYVLTQPPSVSVAPGKTARITCGGNIIGSKLVHWYQQKPGQAPVLVIYDDGDRPSGIPERFSGSNSGNTATLTISRVEAGDEADYYCQVWDTGSDPVVFGGGTKLTVL
B3: BAK1167F2 scFv (scFv, part only; not given: Linker, part only)
scFv, part: B2 scFv, part with T30E, N31Q, Y32T, L34V, D52S, D53A, D54N, S55N, T57D, I59N
B4: BAK1105H3 scFv (scFv, V domains shown, part only)
VH: QVQLVQSGAEVKKPGASVKVSCKASGYTFTNYGLSWVRQAPGQGLEWMGWISGLNGETLYGQEFQGRVTMTTDTSTSTAYMELRSLRSDDTAVYYCARDSSSSWARWFFDLWGRGTLVTVSS
VL: B1 VL with Q16K, P21T, N26I, V47I, I77V, D78E
modifications: scFv linker not given
B5: BAK1185E1 scFv (scFv, part only; not given: Linker, part only)
scFv, part: B2 scFv, part with D52N, D54A, S55T, T57D, I59Q
B6: BAK1111D10 scFv (scFv, V domains shown, part only)
VH: B4 VH with S52A, G53T, L54P, N55D, E57Q, L59S, S101N
VL: B1 VL with Q16K, P21T, N26I, V47I, I77V, D78E
modifications: scFv linker not given
B7: BAK1166G2 scFv (scFv, part only; not given: Linker, part only)
scFv, part: B2 scFv, part with T30A, Y32T, L34I, D52S, D53A, D54N, S55N, T57D, I59N
B8: BAK1184C8 scFv (scFv, V domains shown, part only)
VH: B4 VH with L54S, E57Y, L59S
VL: B1 VL with Q16K, P21T, N26I, V47I, I77V, D78E
modifications: scFv linker not given
B9: BAK1185F8 scFv (scFv, V domains shown, part only)
VH: B4 VH with N31D, S52R, G53N, L54I, N55D, E57Y, L59I
VL: B1 VL with Q16K, P21T, N26I, V47I, I77V, D78E
modifications: scFv linker not given
B10: BAK1167F4 scFv (scFv, V domains shown, part only)
VH: B4 VH with T30I, N31D, Y32T, L34V, G53A, L54N, E57D, L59N
VL: B1 VL with Q16K, P21T, N26I, V47I, I77V, D78E
modifications: scFv linker not given

The binders below were run against human IL-13 variant (Q130R), baculovirus expressed, carboxyl terminus affinity tag (human) (UniProt P35225) (assay: not given).

For B1, the IC50 (read off the curve); TF-1 cell proliferation, 25 ng/ml human IL-13 variant (Q130R) was 80 nM.

Each binder was assayed against human IL-13 (human) (UniProt P35225) (assay: cell-based or functional assay).

Compared with B2, B3 is 2-fold higher in IC50, TF-1 cell proliferation assay: 0.1 nM for the first, 0.2 nM for the second.

B4 and B5 are the same in IC50, TF-1 cell proliferation assay: 0.2 nM for the first, 0.2 nM for the second.

B6 and B7 are the same in IC50, TF-1 cell proliferation assay: 0.2 nM for the first, 0.2 nM for the second.

B8 and B9 are the same in IC50, TF-1 cell proliferation assay: 0.2 nM for the first, 0.2 nM for the second.

B10 was tested, and the IC50, TF-1 cell proliferation assay was 0.2 nM.
